Reference: patent EP0251446B1, “Non-human Carbonyl hydrolase mutants, DNA sequences and vectors encoding same and hosts transformed with said vectors” (GENENCOR INTERNATIONAL, INC., priority 1986, dated 1988)

Experiments:
Experiment in all cases: Kinetics of p-nitroanilide substrate hydrolysis, Q156
Assay type in all cases: biochemical, B. amyloliquefaciens
[1] = substrate: CSCC[C@H](NC(=O)[C@@H]1CCCN1C(=O)[C@H](C)NC(=O)[C@H](C)NC(=O)CCC(=O)O)C(=O)Nc1ccc([N+](=O)[O-])cc1; conditions: other: Table XIV, 156 Gln / 166 Gly; value in parentheses; synthetic substrate with label as P-1 amino acid; 37.0 °C
Excerpt: (§1) Wild-type subtilisin was purified from B. subtilis culture supernatants expressing the B. amyloliquefaciens subtilisin gene (Wells, J.A., et al. (1983) Nucleic Acids Res. 11, 7911-7925) as previously described (Estell, D.A., et al. (1985) J. Biol. Chem. 260, 6518-6521). Details of the synthesis of tetrapeptide substrates having the form succinyl-L-AlaL-AlaL-ProL-[X]-p-nitroanilide (where X is the P1 amino acid) are described by DelMar, E.G., et al. (1979) Anal. Biochem. 99, 316-320. Kinetic parameters, Km(M) and kcat-(s-^1) were measured using a modified progress curve analysis (Estell, D.A., et al. (1985) J. Biol. Chem. 260, 6518-6521). Briefly, plots of rate versus product concentration were fit to the differential form of the rate equation using a non-linear regression algorithm. Errors in kcat and Km for all values reported are less than five percent. The various substrates in Table VIII are ranged in order of decreasing hydrophobicity. Nozaki, Y. (1971), J. Biol. Chem. 246, 2211-2217; Tanford C. (1978) Science 200, 1012).
(§2) Construction of position 156 single mutants were prepared by ligation of the three fragments (1-3) indicated at the bottom of Figure 21. Fragment 3, containing the carboxy-terminal portion of the subtilisin gene including the wild type position 166 codon, was isolated as a 610 bp Sacl-BamHI fragment. Fragment 1 contained the vector sequences, as well as the amino-terminal sequences of the subtilisin gene through codon 151. To produce fragment 1, a unique Kpnl site at codon 152 was introduced into the wild type subtilisin sequence from pS4.5. Site-directed mutagenesis in M13 employed a primer having the sequence 5'-TA-GTC-GTT-GCG-GTA-CCC-GGT-AAC-GAA-3' to produce the mutation. Enrichment for the mutant sequence was accomplished by restriction with Kpnl, purification and self ligation. The mutant sequence containing the Kpnl site was confirmed by direct plasmid sequencing to give pV152. pV152 (-1 µg) was digested with Kpnl and treated with 2 units of DNA polymerase I large fragment (Klenow fragment from Boeringer-Mannheim) plus 50 µM deoxynucleotide triphosphates at 37°C for 30 min. This created a blunt end that terminated with codon 151. The DNA was extracted with 1:1 volumes phenol and CHC13 and DNA in the aqueous phase was precipitated by addition of 0.1 volumes 5M ammonium acetate and two volumes ethanol. After centrifugation and washing the DNA pellet with 70% ethanol, the DNA was lyophilized. DNA was digested with BamHl and the 4.6kb piece (fragment 1) was purified by acrylamide gel electrophoresis followed by electroelution. […] The top strand was synthesized to contain a glutamine codon, and the complementary bottom strand coded for serine at 156. Ligation of heterophosphorylated cassettes leads to a large and favorable bias for the phosphorylated over the non-phosphorylated oligonucleotide sequence in the final segrated plasmid product. Therefore, to obtain Q156 the top strand was phosphorylated, and annealed to the non-phosphorylated bottom strand prior to ligation. Similarly, to obtain S156 the bottom strand was phosphorylated and annealed to the non-phosphorylated top strand. Mutant sequences were isolated after ligation and transformation, and were confirmed by restriction analysis and DNA sequencing as before. To express variant subtilisins, plasmids were transformed into a subtilisin-neutral protease deletion mutant of B. subtilis, BG2036, as previously described. Cultures were fermented in shake flasks for 24 h at 37 ° C in LB media containing […] chloramphenicol and subtilisin was purified from culture supernatants as described. Purity of subtilisin was greater than 95% as judged by SDS PAGE.
(§3) These mutant plasmids designated pS156 and pQ156 and mutant subtilisins designated S156 and Q156 were analyzed with the above synthetic substrates where P-1 comprised the amino acids Glu, Gln, Met and Lys. The results of this analyses are presented in Example 9. […]

[2] = substrate: C[C@H](NC(=O)CCC(=O)O)C(=O)N[C@@H](C)C(=O)N1CCC[C@H]1C(=O)N[C@@H](CCC(=O)O)C(=O)Nc1ccc([N+](=O)[O-])cc1; conditions: 37.0 °C
Excerpt: as §1, §2, §3

[3] = substrate: C[C@H](NC(=O)CCC(=O)O)C(=O)N[C@@H](C)C(=O)N1CCC[C@H]1C(=O)N[C@@H](CCC(N)=O)C(=O)Nc1ccc([N+](=O)[O-])cc1; conditions: other: Table XIV, 156 Gln / 166 Gly; value in parentheses; synthetic substrate with label as P-1 amino acid; 37.0 °C
Excerpt: as §1, §2, §3

[4] = substrate: C[C@H](NC(=O)CCC(=O)O)C(=O)N[C@@H](C)C(=O)N1CCC[C@H]1C(=O)N[C@@H](CCCCN)C(=O)Nc1ccc([N+](=O)[O-])cc1; conditions: other: Table XIV, 156 Gln / 166 Gly; value in parentheses; synthetic substrate with label as P-1 amino acid; 37.0 °C
Excerpt: as §1, §2, §3

[5] = substrate: C[C@H](NC(=O)CCC(=O)O)C(=O)N[C@@H](C)C(=O)N1CCC[C@H]1C(=O)N[C@@H](Cc1ccccc1)C(=O)Nc1ccc([N+](=O)[O-])cc1; conditions: other: Table XIII, enzyme E156; synthetic substrate with label as P-1 residue; 37.0 °C
Excerpt: as §1, §2, §3

[6] = other: Table XIII, enzyme E156, synthetic substrate with label as P-1 residue

B1: B. amyloliquefaciens subtilisin variant Q156 (Glu156 to Gln) (Bacillus amyloliquefaciens; E263Q) (protein)
chain: AQSVPYGVSQIKAPALHSQGYTGSNVKVAVIDSGIDSSHPDLKVAGGASMVPSETNPFQDNNSHGTHVAGTVAALNNSIGVLGVAPSASLYAVKVLGADGSGQYSWIINGIEWAIANNMDVINMSLGGPSGSAALKAAVDKAVASGVVVVAAAGNQGTSGSSSTVGYPGKYPSVIAVGAVDSSNQRASFSSVGPELDVMAPGVSIQSTLPGNKYGAYNGTSMASPHVAGAAALILSKHPNWTNTQVRSSLENTTTKLGDSFYYGKGLINVQAAAQ
notes: at various amino acid residues within the mature form of the subtilisin molecule; made in house; host or cells: Bacillus subtilis BG2036
Km [1]: 24.5 µM
Km [2, 6]: 3300 µM
kcat [2, 6]: 0.90 s-^1
kcat/Km [2, 6]: 270 M⁻¹ s⁻¹
Km ([2]; other: Table XIV, 156 Gln / 166 Gly, value in parentheses, synthetic substrate with label as P-1 amino acid): 3310 µM
Km [3]: 155 µM
Km [4]: 1510 µM
Km [5]: 45 µM
kcat [5]: 48.00 s-^1
kcat/Km [5]: 1.1e+06 M⁻¹ s⁻¹
